In this experiment the target is T1, biotinylated IL31 (human, UniProt Q6EBC2 24-164, biotinylated (sites not given)).
T1 construct: also called human IL-31; huIL-31
T1 sequence: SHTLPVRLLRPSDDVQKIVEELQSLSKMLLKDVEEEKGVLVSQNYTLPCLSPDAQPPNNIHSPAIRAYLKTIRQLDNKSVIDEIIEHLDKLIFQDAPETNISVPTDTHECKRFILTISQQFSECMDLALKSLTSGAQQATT
The experiment in a line: ELISA with a dilution series of biotinylated IL31, 4-parameter fit (apparent Kd/EC50 as IL31 concentration); parental mouse mAb as control; average of duplicate. An excerpt: The assay format utilized a goat anti-human Fc immobilization for capture of human monoclonal antibodies from unprocessed cell culture conditioned media. A dilution series of biotinylated IL31 tested the “C” parameter of a 4-parameter fit which results in the apparent Kd (or EC50) in either ng/mL or nM of IL31. The assay sensitivity is high enough that dilute monoclonal antibody or chimeric antibody cell culture conditioned media can be evaluated. The Kd determined by this method generally approaches the Kd measured for purified, homogeneous monoclonal antibodies measured using Biacore.
(An ELISA detects its analyte on a solid surface through an enzyme-linked reagent.)

Where “and” joins values, the source holds several entries; their conditions need not be identical. Identical values can stand only once.

Broadly, the EC50 is the concentration at which the effect is half-maximal.

B1: 292.63.5.3 (Lot E9289) Control monoclonal antibody (antibody, V domains shown)
VH: EVQLVESGGDLVKPGGSLKLSCAASGFTFSTFIMSWVRQSPEKRLEWVATINSGGYYTFHPDSVKGRFTISRDNAKNTLYLQMSSLRSEDTAIYYCARQEGWSSAYFSWGQGTLVTVSA
VL: DIVMTQSPSSLDMSEGQKVTMICKSSQSLLNGSNQKNYLAWYQQKPGQSPKLLVSFASTRDSGVPDRFIGSGSGTDFTLTITNVQAEDLADYFCQQHYDTPYTFGGGKLEIR
notes: Mouse anti-human IL-31 hybridoma monoclonal antibody
For B1, the EC50 is 0.0043 µg/mL and 0.26 nM.

The record behind these values is patent publication US20100008909A1 (ZymoGenetics, published 2010).
